Experimental data taken from patent US20030073808A1 (KIMBERLY CLARK WORLDWIDE, published 2003).
Primed or numbered codes have the meaning given here. Where no end group is shown, it is not given here. PSDE = pyridine disulfide ethylenediaminetetraacetic acid; AFTA = 2-amino-4-fluorophenol N,N,O-triacetic acid; AFTA″ = not defined here

B1: ChePep-6 (AFTA combined with a peptide having SEQ ID No. 8) (peptide)
peptide: {AFTA″}-CTCVP
modifications: cysteine pairing not given here; reading uncertain
notes: also called ChepPep-6; chelating peptide (CP)
B2: ChePep-1 (PSDE coupled with the peptide having SEQ ID No. 4) (peptide)
peptide: C(PSDE)SAVPVH
notes: Synthetic TIMP-derived peptide covalently coupled to a small-molecule zinc chelator (PSDE); also called ChepPep-1; zinc chelating peptide

Columns and labels:
Active MMP-9 enzyme [1] = target: T1, Active MMP-9 enzyme (UniProt P14780 107-707, limits assumed); assay: enzyme inhibition of MMP-9 (FRET substrate peptide cleavage, inhibitory constants derived from the curves)
T1 construct: Bought as 'Active MMP-9 enzyme' from Calbiochem
Protocol: FIG. 4 illustrates ChePep-5 regulation of MMP-9 via FRET assay. ChePep-5 is composed of a AFTA combined with a peptide having SEQ ID No. 7. ChePep-5 was incubated with MP-9 for 10 minutes to effect binding. This mixture was added to the FRET substrate peptide in reaction buffer. Fluorescence measurements were made at the indicated times. The curves represent ChepPep-5: MMP-9 molar stoichiometries of 0:1 (closed circles), 0.1:1 (open circles), 0.2:1 (closed squares), 0.3:1 (open squares). Excitation was at 365 nm, and the emission was fixed at 450 nm.
The second assay utilized the technique of fluorescence resonance energy transfer (FRET). The substrate peptide (Calbiochem #444221) comprised seven amino acids, coupled to a carboxyl terminal dinitrophenyl acceptor, and an amino terminal 2-aminobenzo-anthraniloyl (Abz) moiety donor. Cleavage of this substrate by MMP-9 results in the liberation of a fluorescent product (365 nm excitation, 450 nm emission). […] MMP at a concentration of 0.1 μM was mixed with varying amounts of chelating peptide (0, 0.01, 0.02, 0.04, and 0.1 μM) and incubated at 25° C. for 10 minutes to effect binding. The protein mixture was added to the peptide substrate and mixed quickly. Fluorescence intensity as a function of time was measured with a Dynex MFX fluorescence microtiter plate reader. Fluorescence intensity was related back to moles of peptide cleaved by producing a standard curve with an Abz containing non-FRET peptide. Inhibitory constants were derived from the curves and are listed below in Table 2.

Active MMP-9 enzyme [2] = target: T1, Active MMP-9 enzyme; assay: enzyme inhibition of MMP-9 (fluorescent substrate cleavage, inhibitory constants derived from the curves)
Protocol: Two enzymatic assays were performed. The first assay measured the enzymatic hydrolysis of fluoresceinated collagen by MMP-9 as a function of time. Fluoresceinated collagen (Molecular Probes, Inc.), at a concentration of 5 μM was added to reaction buffer (50 mM Tris-HCl (pH 7.6), 150 mM NaCl, 5 mM CaCl₂, 0.1 mM NaN₃) and was placed into a Spectrosil quartz fluorometer cuvette. MMP at a concentration of 0.1 μM was mixed with varying amounts of chelating peptide having SEQ ID No. 4 or 6 and incubated at 25° C. for 10 minutes to effect binding. The protein mixture was added to the collagen substrate and mixed quickly. Fluorescence emission intensity at 520 nm was measured as a function of time (excitation wavelength 495 nm) in a Shimadzu RF5301 fluorometer. The fluorescein release assay was used to determine the inhibitory constant (Kᵢ) of the chelating peptide inhibitor ([I]) according to Segel (1993) via the use of Dixon plots (1/v vs. [I]), such that: […]

T1 sequence (P14780 107-707 limits assumed): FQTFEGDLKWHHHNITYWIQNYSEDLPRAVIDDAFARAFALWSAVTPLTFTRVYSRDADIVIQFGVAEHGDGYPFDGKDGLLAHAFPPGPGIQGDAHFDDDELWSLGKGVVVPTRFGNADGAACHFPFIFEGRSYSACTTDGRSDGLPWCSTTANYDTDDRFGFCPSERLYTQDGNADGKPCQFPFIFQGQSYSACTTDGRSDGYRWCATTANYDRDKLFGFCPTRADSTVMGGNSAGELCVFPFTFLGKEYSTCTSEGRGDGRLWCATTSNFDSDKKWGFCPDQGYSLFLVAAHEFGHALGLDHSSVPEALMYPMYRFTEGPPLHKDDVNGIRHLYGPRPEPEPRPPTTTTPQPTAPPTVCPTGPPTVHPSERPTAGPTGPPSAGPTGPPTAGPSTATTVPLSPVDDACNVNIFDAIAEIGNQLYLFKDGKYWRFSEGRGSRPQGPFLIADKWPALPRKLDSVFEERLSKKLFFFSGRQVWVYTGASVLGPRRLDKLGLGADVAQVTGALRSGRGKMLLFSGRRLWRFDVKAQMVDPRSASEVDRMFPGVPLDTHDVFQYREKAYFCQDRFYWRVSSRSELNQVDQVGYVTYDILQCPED

Binder	Ki (Active MMP-9 enzyme [1])	Ki (Active MMP-9 enzyme [2])
B1	125 µM	
IYTAC(PSDE)MSAV (not fully specified (C-terminus)) [ChePep-3 (PSDE combined with a peptide having SEQ ID No. 6)]	350 µM	
B2		98 µM
D(IDA)SAVPVH-NH2 [ChePep-2 (IDA coupled with a peptide having SEQ ID No. 5)]	67 µM	
{AFTA}-VHTHLCD (also called ChepPep-5) [ChePep-5 (AFTA combined with a peptide having SEQ ID No. 7)]	221 µM	
